Laboratory results published in publication PMC10373098 (Nature structural & molecular biology, 2022).

T1: RhCE (human (endogenous in erythrocytes), UniProt P18577 1-417)
T1 sequence (looked up): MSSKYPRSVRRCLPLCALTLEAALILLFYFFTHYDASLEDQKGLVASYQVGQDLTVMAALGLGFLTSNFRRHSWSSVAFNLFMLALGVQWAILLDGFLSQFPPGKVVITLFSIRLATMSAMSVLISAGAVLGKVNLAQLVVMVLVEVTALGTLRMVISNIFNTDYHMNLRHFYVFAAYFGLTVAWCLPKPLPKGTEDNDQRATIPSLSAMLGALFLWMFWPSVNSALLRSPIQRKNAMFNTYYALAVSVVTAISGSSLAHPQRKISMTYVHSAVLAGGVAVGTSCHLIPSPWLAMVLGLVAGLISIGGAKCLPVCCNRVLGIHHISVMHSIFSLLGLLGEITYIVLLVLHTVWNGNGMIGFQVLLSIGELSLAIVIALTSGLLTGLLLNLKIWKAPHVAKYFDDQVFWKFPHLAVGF

T2: band 3 anion exchanger (human (endogenous in erythrocytes), UniProt P02730 1-911)
T2 sequence (looked up): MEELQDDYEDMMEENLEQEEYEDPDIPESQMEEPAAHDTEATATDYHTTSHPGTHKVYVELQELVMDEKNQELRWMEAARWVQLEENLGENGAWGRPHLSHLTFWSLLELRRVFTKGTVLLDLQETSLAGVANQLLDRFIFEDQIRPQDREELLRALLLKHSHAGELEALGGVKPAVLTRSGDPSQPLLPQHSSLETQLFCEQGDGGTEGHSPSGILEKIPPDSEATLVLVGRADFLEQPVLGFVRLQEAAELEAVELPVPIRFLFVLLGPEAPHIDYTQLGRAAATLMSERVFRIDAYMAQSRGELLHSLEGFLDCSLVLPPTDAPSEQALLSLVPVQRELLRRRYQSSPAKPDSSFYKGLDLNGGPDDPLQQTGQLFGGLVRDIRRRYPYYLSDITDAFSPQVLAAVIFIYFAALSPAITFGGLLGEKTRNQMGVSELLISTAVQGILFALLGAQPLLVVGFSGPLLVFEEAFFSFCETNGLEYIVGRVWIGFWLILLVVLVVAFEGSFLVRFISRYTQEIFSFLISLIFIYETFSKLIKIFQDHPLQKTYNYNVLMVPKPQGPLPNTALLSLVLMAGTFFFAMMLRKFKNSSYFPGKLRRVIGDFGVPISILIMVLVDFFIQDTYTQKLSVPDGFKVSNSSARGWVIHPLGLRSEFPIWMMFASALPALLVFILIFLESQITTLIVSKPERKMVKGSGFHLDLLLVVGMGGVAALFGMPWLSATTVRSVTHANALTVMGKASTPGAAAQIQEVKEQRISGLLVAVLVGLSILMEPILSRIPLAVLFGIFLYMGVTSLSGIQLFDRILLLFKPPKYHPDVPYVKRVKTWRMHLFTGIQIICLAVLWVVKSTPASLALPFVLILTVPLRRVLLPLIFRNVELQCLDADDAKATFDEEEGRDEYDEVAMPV

B1: RhAG (natural protein, human (endogenous in erythrocytes), UniProt Q02094 1-409, looked up)
chain: MRFTFPLMAIVLEIAMIVLFGLFVEYETDQTVLEQLNITKPTDMGIFFELYPLFQDVHVMIFVGFGFLMTFLKKYGFSSVGINLLVAALGLQWGTIVQGILQSQGQKFNIGIKNMINADFSAATVLISFGAVLGKTSPTQMLIMTILEIVFFAHNEYLVSEIFKASDIGASMTIHAFGAYFGLAVAGILYRSGLRKGHENEESAYYSDLFAMIGTLFLWMFWPSFNSAIAEPGDKQCRAIVNTYFSLAACVLTAFAFSSLVEHRGKLNMVHIQNATLAGGVAVGTCADMAIHPFGSMIIGSIAGMVSVLGYKFLTPLFTTKLRIHDTCGVHNLHGLPGVVGGLAGIVAVAMGASNTSMAMQAAALGSSIGTAVVGGLMTGLILKLPLWGQPSDQNCYDDSVYWKVPKTR
B2: glycophorin A (natural protein, human (endogenous in erythrocytes), UniProt P02724 20-150, looked up)
chain: LSTTEVAMHTSTSSSVTKSYISSQTNDTHKRDTYAATPRAHEVSEISVRTVYPPEEETGERVQLAHHFSEPEITLIIFGVMAGVIGTILLISYGIRRLIKKSPSDVKPLPSPDTDVPLSSVEIENPETSDQ
B3: protein 4.2 (natural protein, human (endogenous in erythrocytes), UniProt P16452 1-691, looked up)
chain: MGQALGIKSCDFQAARNNEEHHTKALSSRRLFVRRGQPFTIILYFRAPVRAFLPALKKVALTAQTGEQPSKINRTQATFPISSLGDRKWWSAVVEERDAQSWTISVTTPADAVIGHYSLLLQVSGRKQLLLGQFTLLFNPWNREDAVFLKNEAQRMEYLLNQNGLIYLGTADCIQAESWDFGQFEGDVIDLSLRLLSKDKQVEKWSQPVHVARVLGALLHFLKEQRVLPTPQTQATQEGALLNKRRGSVPILRQWLTGRGRPVYDGQAWVLAAVACTVLRCLGIPARVVTTFASAQGTGGRLLIDEYYNEEGLQNGEGQRGRIWIFQTSTECWMTRPALPQGYDGWQILHPSAPNGGGVLGSCDLVPVRAVKEGTLGLTPAVSDLFAAINASCVVWKCCEDGTLELTDSNTKYVGNNISTKGVGSDRCEDITQNYKYPEGSLQEKEVLERVEKEKMEREKDNGIRPPSLETASPLYLLLKAPSSLPLRGDAQISVTLVNHSEQEKAVQLAIGVQAVHYNGVLAAKLWRKKLHLTLSANLEKIITIGLFFSNFERNPPENTFLRLTAMATHSESNLSCFAQEDIAICRPHLAIKMPEKAEQYQPLTASVSLQNSLDAPMEDCVISILGRGLIHRERSYRFRSVWPENTMCAKFQFTPTHVGLQRLTVEVDCNMFQNLTNYKSVTVVAPELSA
modifications: N-terminal glycine myristoylated
B4: aquaporin-1 (natural protein, human (endogenous in erythrocytes), UniProt P29972 1-269, looked up)
chain: MASEFKKKLFWRAVVAEFLATTLFVFISIGSALGFKYPVGNNQTAVQDNVKVSLAFGLSIATLAQSVGHISGAHLNPAVTLGLLLSCQISIFRALMYIIAQCVGAIVATAILSGITSSLTGNSLGRNDLADGVNSGQGLGIEIIGTLQLVLCVLATTDRRRRDLGGSAPLAIGLSVALGHLLAIDYTGCGINPARSFGSAVITHNFSNHWIFWVGPFIGGALAVLIYDFILAPRSSDLTDRVKVWTSGQVEEYDLDADDINSRVEMKPK
modifications: lipid-like density attached to Cys-87, assigned as a palmitoylation site

What was measured:
Assay in all cases: cryo-EM structure
cryo-EM structure = target: the molecule itself
RhCE = target: T1, RhCE
band 3 anion exchanger [1] = target: T2, band 3 anion exchanger
band 3 anion exchanger [2] = target: T2, band 3 anion exchanger; remark: listed apart in the source
protein 4.2 = target: B3

B1
binding result (cryo-EM structure): binds | stoichiometry N (RhCE): 2 RhAG per RhCE

B2
stoichiometry N (band 3 anion exchanger [1]): 1 GPA per band 3 protomer

B3
binding result (band 3 anion exchanger [2]): binds

B4
binding result (protein 4.2): binds
